Results on two molecules are retold here after US20140242068A1 (EMORY UNIVERSITY, published 2014).

Assay [1] concerns the target T1, JAMA on CHO cells (CHO-JAMA transfectants) (UniProt Q9Y624 28-299, limits assumed).
T1 construct: whole, on cells; Construct not described
T1 sequence (looked up): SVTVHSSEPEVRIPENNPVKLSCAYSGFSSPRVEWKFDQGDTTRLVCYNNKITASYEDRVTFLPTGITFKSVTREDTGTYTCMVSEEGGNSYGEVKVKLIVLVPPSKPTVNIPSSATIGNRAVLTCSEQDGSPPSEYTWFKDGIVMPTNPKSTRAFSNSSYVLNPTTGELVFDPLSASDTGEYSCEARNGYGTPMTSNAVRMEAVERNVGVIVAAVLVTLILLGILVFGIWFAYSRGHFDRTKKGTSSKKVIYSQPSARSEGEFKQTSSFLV
Kind of assay: staining of CHO-JAMA transfectants.

For assay [2], the target named is T2, purified extracellular domain of CAR tagged with GST (CAR-GST) (UniProt P78310 20-237, limits assumed).
T2 construct: extracellular domain; also called soluble CAR; sCAR; not shown: GST tag
T2 sequence (looked up): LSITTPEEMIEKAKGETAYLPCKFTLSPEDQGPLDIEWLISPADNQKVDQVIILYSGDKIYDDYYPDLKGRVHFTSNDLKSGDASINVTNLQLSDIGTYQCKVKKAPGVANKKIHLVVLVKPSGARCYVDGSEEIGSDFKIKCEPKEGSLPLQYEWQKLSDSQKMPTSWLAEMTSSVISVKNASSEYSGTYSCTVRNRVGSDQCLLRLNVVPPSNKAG
Kind of assay: ELISA, antigen coated at 5 µg/ml. (In general: In an ELISA, binding on a coated surface is turned into a signal by an enzyme label.)

The target in assay [3] is T3, JAMA-Fc (UniProt Q9Y624 28-238, limits assumed).
T3 construct: the construct is not described; not shown: Fc tag
T3 sequence (looked up): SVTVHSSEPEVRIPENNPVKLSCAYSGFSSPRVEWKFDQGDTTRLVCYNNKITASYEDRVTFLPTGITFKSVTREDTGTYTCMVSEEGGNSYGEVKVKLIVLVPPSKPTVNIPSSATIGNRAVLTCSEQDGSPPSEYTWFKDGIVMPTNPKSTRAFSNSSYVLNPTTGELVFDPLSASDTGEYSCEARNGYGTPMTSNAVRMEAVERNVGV
The assay is described as follows: ELISA, antigen coated at 5 µg/ml.

The target in assay [4] is T4, JAMC_Fc (UniProt Q9BX67 32-241, limits assumed).
T4 construct: Construct not described; not shown: Fc tag
T4 sequence (looked up): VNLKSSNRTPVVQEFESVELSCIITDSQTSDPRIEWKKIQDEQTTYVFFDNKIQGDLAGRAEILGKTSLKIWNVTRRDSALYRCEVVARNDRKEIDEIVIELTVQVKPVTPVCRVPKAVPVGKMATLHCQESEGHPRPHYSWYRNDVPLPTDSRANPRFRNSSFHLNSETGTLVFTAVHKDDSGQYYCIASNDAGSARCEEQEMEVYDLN
The assay is described as follows: ELISA, antigen coated at 5 µg/ml.

The target of assay [5] is T5, CLMP-Fc (UniProt Q9H6B4 19-235, limits assumed).
T5 construct: Construct not described; also called CAR-like membrane protein; not shown: Fc tag
T5 sequence (looked up): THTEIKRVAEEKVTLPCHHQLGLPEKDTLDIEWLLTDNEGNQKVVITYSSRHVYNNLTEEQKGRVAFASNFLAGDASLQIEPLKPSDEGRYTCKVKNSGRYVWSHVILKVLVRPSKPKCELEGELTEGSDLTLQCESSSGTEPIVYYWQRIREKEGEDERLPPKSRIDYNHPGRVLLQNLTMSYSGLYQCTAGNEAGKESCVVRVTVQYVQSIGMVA
The assay is described as follows: ELISA, antigen coated at 5 µg/ml.

Assay [6] has as its target T6, EVA-His (UniProt O60487 27-154, limits assumed).
T6 construct: Construct not described; also called EVA1; not shown: His tag
T6 sequence (looked up): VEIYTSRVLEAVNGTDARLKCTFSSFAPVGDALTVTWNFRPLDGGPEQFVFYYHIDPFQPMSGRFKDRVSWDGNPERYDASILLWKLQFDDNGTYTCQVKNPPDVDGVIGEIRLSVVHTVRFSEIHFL
The assay is described as follows: ELISA, antigen coated at 5 µg/ml.

The target in assay [7] is T7, SIRPA-HIS (UniProt P78324 31-370, limits assumed).
T7 construct: Construct not described; not shown: His tag
Kind of assay: ELISA, antigen coated at 5 µg/ml.

For assay [8], the target named is T8, JAMA-GST (UniProt Q9Y624 28-238, limits assumed).
T8 construct: Construct not described; not shown: GST tag
T8 sequence (looked up): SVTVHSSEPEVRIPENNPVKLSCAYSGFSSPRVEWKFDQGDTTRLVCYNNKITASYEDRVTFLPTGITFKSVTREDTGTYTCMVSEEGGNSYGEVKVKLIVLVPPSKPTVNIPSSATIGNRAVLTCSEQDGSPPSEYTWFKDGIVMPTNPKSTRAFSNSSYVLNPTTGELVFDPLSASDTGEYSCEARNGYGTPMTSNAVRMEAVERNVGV
Kind of assay: ELISA, antigen coated at 5 µg/ml.

The target in assay [9] is BSA (UniProt P02769 25-607). The assay is described as follows: ELISA, antigen coated at 5 µg/ml.
Chain of BSA (P02769 25-607 limits assumed): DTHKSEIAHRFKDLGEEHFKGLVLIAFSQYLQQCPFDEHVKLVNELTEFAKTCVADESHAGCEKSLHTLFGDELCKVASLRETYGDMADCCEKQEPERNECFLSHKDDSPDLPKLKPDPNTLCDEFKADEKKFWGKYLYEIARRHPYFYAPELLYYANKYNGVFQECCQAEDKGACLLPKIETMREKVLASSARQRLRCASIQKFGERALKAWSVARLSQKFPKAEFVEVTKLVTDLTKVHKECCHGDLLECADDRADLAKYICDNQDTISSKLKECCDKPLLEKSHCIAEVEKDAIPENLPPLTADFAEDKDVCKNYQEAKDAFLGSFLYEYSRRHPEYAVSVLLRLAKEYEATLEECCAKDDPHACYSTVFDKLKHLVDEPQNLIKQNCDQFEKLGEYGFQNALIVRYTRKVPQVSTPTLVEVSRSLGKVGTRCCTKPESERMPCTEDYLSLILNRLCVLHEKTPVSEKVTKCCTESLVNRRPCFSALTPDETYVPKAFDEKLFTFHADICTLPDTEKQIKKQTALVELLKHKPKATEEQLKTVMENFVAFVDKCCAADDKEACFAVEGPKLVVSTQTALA

T7 sequence (P78324 31-370 limits assumed): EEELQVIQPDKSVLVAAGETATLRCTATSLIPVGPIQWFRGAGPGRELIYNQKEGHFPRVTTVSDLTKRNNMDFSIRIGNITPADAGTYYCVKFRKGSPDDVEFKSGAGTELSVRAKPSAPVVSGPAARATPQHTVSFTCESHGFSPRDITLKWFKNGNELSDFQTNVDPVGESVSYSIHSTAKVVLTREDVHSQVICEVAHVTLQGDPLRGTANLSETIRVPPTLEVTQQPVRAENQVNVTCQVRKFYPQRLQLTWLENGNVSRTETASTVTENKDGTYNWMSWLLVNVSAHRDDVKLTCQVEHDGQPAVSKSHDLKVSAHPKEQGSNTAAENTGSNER

B1: DW100 (antibody, IgG1, V domains shown)
VH: DVQLVESGAELVRPGASVKLSCKALAYTFTDYEMHWVKQTPVHGLEWIGIIHPGSGGTVYNQKFKGKATLTADKSSSTAYMELSSLTSEDSTVYYCTRRRYYGSSYWYFDVWGAGN
VL: VLTQSPASLAASVGETVTITCRASENIYYSLAWYQQKQGKSPQLLIYNANSLEDGVPSRFSGSGSGTQYSLKINSMQPEDTATYFCEQTYDVPLTFGAGTKLEL
notes: also called DW100 mAb; anti-JAML monoclonal antibody DW100
Consider B1, for which the binding result in assay [1] is given as “no binding”; in assay [2], “no binding (tested: antibody 10 µg/ml)”; in assay [3] it was “no binding (tested: antibody 10 µg/ml)”; in assay [4] it was “no binding (tested: antibody 10 µg/ml)”; in [5], “no binding (tested: antibody 10 µg/ml)”; in assay [6], “no binding (tested: antibody 10 µg/ml)”. Further, the binding result in assay [7], in [8] and in [9] was “no binding (tested: antibody 10 µg/ml)” in each case.

B2: DW216 (antibody, IgG1, V domains shown)
VH: DVQLVESGPGLVKPSQSLSLTCTVTGYSITSDYAWNWIRQFPGNKLEWMGYISSSGNSNYNPSLKSRISITRDTSKNQFFLQLNSVTTEDTATYYCAGATGYSMDYWGQGTTLTVK
VL: VLTQSPAIMSASLGERVTMTCTASSSVSSSYLHWYQQKPGSSPKLWIYSTSNLASGVPARFSGSGSGTSYSLTISSMEAEDAATYYCHQYHRSPFTFGSGTKLELK
notes: also called DW216 mAb; H3L3
On to B2, for which the binding result is listed as “no binding” in [1]; “no binding (tested: antibody 10 µg/ml)” in assay [2]; “no binding (tested: antibody 10 µg/ml)” in assay [3]; “no binding (tested: antibody 10 µg/ml)” in [4]; “no binding (tested: antibody 10 µg/ml)” in [5]; “no binding (tested: antibody 10 µg/ml)” in assay [6]. For the same molecule, the binding result in assay [7], in [8] and in assay [9] was “no binding (tested: antibody 10 µg/ml)” each time.
